T1: Recombinant human CD40L (human, UniProt P29965 108-261, limits assumed)
T1 construct: also called CD40 ligand
T1 sequence (looked up): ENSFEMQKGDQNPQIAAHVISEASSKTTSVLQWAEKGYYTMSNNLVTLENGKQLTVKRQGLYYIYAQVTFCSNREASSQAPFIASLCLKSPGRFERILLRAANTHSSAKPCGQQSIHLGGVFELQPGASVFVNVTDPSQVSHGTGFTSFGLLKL

B1: DOM8.111 (other)
VH: EVQLLESGGGLVQPGGSLRLSCAASGFTFERYPMTWVRQAPGKGLEWVSTIHGSGSATYYADSVKGRFTISRDNSKNTLYLQMNSLRAEDTAVYYCAKGPYTSRHNSLGHFDYWGQGTLVTVSS
notes: VH dAb
B2: DOM.112 (other)
VH: EVQLLESGGGLVQPGGSLRLSCAASGFTFMDYPMGWVRQAPGKGLEWVSSIGPVGMSTYYADSVKGRFTISRDNSKNTLYLQMNSLRAEDTAVYYCAKYGGTSGRHNTKFDYWGQGTLVTVSS
notes: VH dAb
B3: DOM.99 (other)
VH: EVQLLESGGGLVQPGGSLRLSCAASGFTFEDYAMSWVRQAPGKGLEWVSTITPGGFWTYYADSVKGRFTISRDNSKNTLYLQMNSLRAEDTAVYYCAKTSSGELQLVEDFDYWGQGTLVTVSS
notes: VH dAb
B4: DOM.100 (other)
VL: DIQMTQSPSSLSASVGDRVTITCRASQNIKHSLRWYQQKPGKAPRLLIYHRSQLQSGVPSRFSGSGSGTDFTLTISSLQPEDFATYYCQQVRHRPYTFGQGTKVEIKR
notes: Vk dAb
B5: DOM.102 (other)
VL: DIQMTQSPSSLSASVGDRVTITCRASQHIGHHLRWYQQKPGKAPKLLIYHRSHLQSGVPSRFSGSGSGTDFTLTISSLQPEDSATYYCQQWDRPPYTFGQGTKVEIKR
notes: Vk dAb
B6: DOM.113 (other)
VH: EVQLLESGGGLVQPGGSLRLSCAASGFTFTEYPMSWVRQAPGKGLEWVSVISPLGFTTYYADSVKGRFTISRDNSKNTLYLQMNSLRAEDTAVYYCAKWTGGSGILNSSFDYWGQGTLVTVSS
notes: VH dAb
B7: DOM-43 (other)
VH: EVQLLESGGGLVQPGGSLRLSCAASGFTFASYEMAWVRQAPGKGLEWVSSIGSDGGPTYYADSVKGRFTISRDNSKNTLYLQMNSLRAEDSAVYYCAKPDRAFDYWGQGTLVTVSS
notes: VH dAb
B8: DOM-73 (other)
VH: EVQLLESGGGLVQPGGSLRLSCAASGFTFSKYDMSWVRQAPGKGLEWVSTILEDGLTTYYADSVKGRFTISRDNSKNTLYLQMNSLRAEDTAVYYCAKPGRLFDYWGQGTLVTVSS
notes: VH dAb
B9: DOM.178 (other)
VH: EVQLLESGGGLVQPGGSLRLSCAASGFTFEDFDMAWVRQAPGKGLEWVSSINDQGSLTYYADSVKGRFTISRDNSKNTLYLQMNSLRAEDTAVYYCAKPDQFFDYWGQGTLVTVSS
notes: VH dAb
B10: DOM.196 (other)
VH: EVQLLESGGGLVQPGGSLRLSCAASGFTFSGYEMAWVRQAPGKGLEWVSSITDMGDSTYYADSVKGRFTISRDNSKNTLYLQMNSLRAEDTAVYYCAKPGTAFDYWGPGTLVTVSS
notes: VH dAb
B11: DOM.206 (other)
VH: EVQLLESGGGLVQPGGSLRLSCAASGFTFASYEMTWVRQAPGKGLEWVSGISSDGLSTYYADSVKGRFTISRDNSKNTLYLQMNSLRAEDTAVYYCAKPGVLFDYWGQGTLVTVSS
notes: VH dAb
B12: DOM-78 (other)
VH: EVQLLESGGGLVQPGGSLRLSCAASGFTFERYQMAWVRQAPGKGLEWVSTISSDGGGTYYADSVKGRFTISRDNSKNTLYLQMNSLRAEDTAVYYCAKPGHRFDYWGQGTLVTVSS
notes: VH dAb
B13: DOM-66 (other)
VH: EVQLLESGGGLVQPGGSLRLSCAASGFTFSDYEMLWVRQAPGKGLEWVSTITSEGHSTYYADSVKGRFTISRDNSKNTLYLQMNSLRAEDTAVYYCAKPGTSFDYWGQGTLVTVSS
notes: VH dAb
B14: DOM.130 (other)
VH: EVQLLESGGGLVQPGGSLRLSCTASGFTFAGYQMSWVRQAPGKGLEWVSSITNEGVSTYYADSVKGRFTISRDNSKNTLYLQMNSLRAEDTAVYYCAKPGKYFDYWGQGTLVTVSS
notes: VH dAb
B15: DOM.208 (other)
VH: EVQLLESGGGLVQPGGSLRLSCAASGFTFTEYEMSWVRQAPGKGLEWVSSIDNVGSSTYYADSVKGRFTISRDNSKNTLYLQMNSLRAEDTAVYYCAKPGKLFDYWGQGTLVTVSS
notes: VH dAb
B16: DOM.205 (other)
VH: EVQLLESGGGLVQPGGSLRLSCAASGFTFASYQMAWVRQAPGKGLEWVSGITSGGLSTYYADSVKGRFTISRDNSKNTLYLQMNSLRAEDTAVYYCAKPGRGFDYWGQGTLVTVSS
notes: VH dAb
B17: DOM.134 (other)
VH: EVQLLESGGGLVQPGGSLRLSCAASGFTFADYEMTWVRQAPGKGLEWVSSITSDGVSTYYADSVKGRFTISRDNSKNTLYLQMNSLRAEDTAVYYCAKPSVQFDYWGQGTLVTVSS
notes: VH dAb
B18: DOM-67 (other)
VH: EVQLLESGGGLVQPGGSLRLSCAASGFTFSDYEMSWVRQAPGKGLEWVSTIDSDGSFTYYADSVKGRFTISRDNSKNTLYLQMNSLRAEDTAVYYCAKPGVKFDYWGQGTLVTVSS
notes: VH dAb
B19: DOM.180 (other)
VH: EVQLLESGGGLVQPGGSLRLSCAASGFTFTDYEMGWVRQAPGKGLEWVSTITSLGESTYYADSVKGRFTISRDNSKNTLYLQMNSLRAEDTAVYYCAKPGRIFDYWGQGTLVTVSS
notes: VH dAb
B20: DOM-83 (other)
VH: EVQLLESGGGLVQPGGSLRLSCAASGFTFALYQMAWVRQAPGKGLEWVSSIDSSGSDTYYADSVKGRFTISRDNSKNTLYLQMNSLRAEDTAVYYCAKPERDFDYWGQGTLVTVSS
notes: VH dAb
B21: DOM.184 (other)
VH: EVQLLESGGGLVQPGGSLRLSCAASGFTFSDYEMMWVRQAPGKGLEWVSSITSHGGSTYYADSVKGRFTISRDNSKNTLYLQMNSLRAEDTAVYYCAKPDKDFDYWGQGTLVTVSS
notes: VH dAb
B22: DOM-74 (other)
VH: EVQLLESGGGLVQPGGSLRLSCAASGFTFSDYPMTWVRQAPGKGLEWVSTILSPGTETYYADSVKGRFTISRDNSKNTLYLQMNSLRAEDTAVYYCAKAEKDFDYWGQGTLVTVSS
notes: VH dAb
B23: DOM-65 (other)
VH: EVQLLESGGGLVQPGGSLRLSCAASGFTFNEYEMTWVRQAPGKGLEWVSTITSEGSGTYYADSVKGRFTISRDNSKNTLYLQMNSLRAEDTAVYYCAKPNGKFDYWGQGTLVTVSS
notes: VH dAb
B24: DOM-84 (other)
VH: EVQLLESGGGLVQPGGSLRLSCAASGFTFRQYQMAWARQAPGKGLEWVSTIASDGVSTYYADSVKGRFTISRDNSKNTLYLQMNSLRAEDTAVYYCAKVGRDFDYWGQGTLVTVSS
notes: VH dAb
B25: DOM-80 (other)
VH: EVQLLESGGGLVQPGGSLRLSCAASGFTFGRYQMAWVRQAPGKGLEWVSSISSDGGGTYYADSVKGRFTISRDNSKNTLYLQMNSLRAEDTAVYYCAKPSRRFDYWGQGTLVTVSS
notes: VH dAb
B26: DOM.186 (other)
VH: EVQLLESGGGLVQPGGSLRLSCAASGLTFGRYEMAWVRQAPGKGLEWVSSIDSDGWVTYYADSVKGRFTISRDNSKNTLYLQMNSLRAEDTAVYYCAQPDSLFDYWGQGTLVTVSS
notes: VH dAb
B27: DOM.129 (other)
VH: EVQLLESGGGLVQPGGSLRLSCAASGFTFPKYEMAWVRQAPGKGLEWVSSIDGDGKSTYYADSVKGRFTISRDNSKNTLYLQMNSLRAEDTAVYYCAKPDQFFDYWGQGTLVTVSS
notes: VH dAb
B28: DOM-68 (other)
VH: EVQLLESGGGLVQPGGSLRLSCAASGFTFKDYEMTWVRQAPGKGLEWVSSISSTGQSTYYADSVKGRFTISRDNSKNTLYLQMNSLRAEDTAVYYCAKPGNKFDYWGQGTLVTVSS
notes: VH dAb
B29: DOM.128 (other)
VH: EVQLLESGGGLVQPGGSLRLSCAASGFTFERYQMAWVRQAPGKGLEWVSTISSDGGGTYYADSVKGRFTISRDNSKNTLYLQMNSLRAEDTAVYYCAKPGTVFDYWGQGTLVTVSS
notes: VH dAb
B30: DOM-58 (other)
VH: EVQLLESGGGLVQPGGSLRLSCAASGFTFEVYTMAWVRQAPGKGLEWVSTIDESGRDTYYADSVKGRFTISRDNSKNTLYLQMNSLRAEDTAVYYCAKPGVWFDYWGQGTLVTVSS
notes: VH dAb
B31: DOM.190 (other)
VH: EVQLLESGGGLVQPGGSLRLSCAASGFTFSMYDMHWVRQAPGKGLEWVSTILSDGTDTYYADSVKGRFTISRDNSKNTLYLQMNSLRAEDTAVYYCAKYGAMFDYWGQGTLVTVSS
notes: VH dAb
B32: DOM.131 (other)
VH: EVQLLESGGGLVQPGGSLRLSCAASGFTFGEYEMVWVRQAPGKGLEWVSSITSDGLSTYYADSVKGRFTISRDNSKNTLYLQMNSLRAEDTAVYYCAKPGIRFDYWGQGTLVTVSS
notes: VH dAb
B33: DOM-57 (other)
VH: EVQLLESGGGLVQPGGSLRLSCAASGFTFSEYDMYWVRQAPGKGLEWVSWIDTDGGDTYYADSVKGRFTISRDNSKNTLYLQMNSLRAEDTAVYYCAKPGLKFDYWGQGTLVTVSS
notes: VH dAb

These binders were tested against T1, Recombinant human CD40L (assay: CD40L/CD40-Fc receptor binding assay;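 note: plate assay with coated human CD40-Fc, bound ligand detected via HRP anti-biotin antibody and TMB, OD at 450 nm, lower signal indicates stronger inhibition by dAb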).

Binding result, binds:
B1, B2, B3, B4, B5, B6, B7, B8, B9, B10, B11, B12, B13, B14, B15, B16, B17, B18, B19, B20, B21, B22, B23, B24, B25, B26, B27, B28, B29, B30, B31, B32, B33

From patent publication US20090297524A1 (DOMANTIS, published 2009)
